Numbering of substitutions follows the chain as printed. Names and notes keep the numbering of the source. Values joined by “and” are separate entries in the source; they are usually repeats but may differ in a detail not shown here. Equal values may be shown once. Each block holds one binder with its values, some of them ahead of it.
Columns and labels:
[1] = biological target: T1, human Neurofascin ECD-His6 (8208-NF-050, R&D Systems) (human); assay: BLI
T1 chain: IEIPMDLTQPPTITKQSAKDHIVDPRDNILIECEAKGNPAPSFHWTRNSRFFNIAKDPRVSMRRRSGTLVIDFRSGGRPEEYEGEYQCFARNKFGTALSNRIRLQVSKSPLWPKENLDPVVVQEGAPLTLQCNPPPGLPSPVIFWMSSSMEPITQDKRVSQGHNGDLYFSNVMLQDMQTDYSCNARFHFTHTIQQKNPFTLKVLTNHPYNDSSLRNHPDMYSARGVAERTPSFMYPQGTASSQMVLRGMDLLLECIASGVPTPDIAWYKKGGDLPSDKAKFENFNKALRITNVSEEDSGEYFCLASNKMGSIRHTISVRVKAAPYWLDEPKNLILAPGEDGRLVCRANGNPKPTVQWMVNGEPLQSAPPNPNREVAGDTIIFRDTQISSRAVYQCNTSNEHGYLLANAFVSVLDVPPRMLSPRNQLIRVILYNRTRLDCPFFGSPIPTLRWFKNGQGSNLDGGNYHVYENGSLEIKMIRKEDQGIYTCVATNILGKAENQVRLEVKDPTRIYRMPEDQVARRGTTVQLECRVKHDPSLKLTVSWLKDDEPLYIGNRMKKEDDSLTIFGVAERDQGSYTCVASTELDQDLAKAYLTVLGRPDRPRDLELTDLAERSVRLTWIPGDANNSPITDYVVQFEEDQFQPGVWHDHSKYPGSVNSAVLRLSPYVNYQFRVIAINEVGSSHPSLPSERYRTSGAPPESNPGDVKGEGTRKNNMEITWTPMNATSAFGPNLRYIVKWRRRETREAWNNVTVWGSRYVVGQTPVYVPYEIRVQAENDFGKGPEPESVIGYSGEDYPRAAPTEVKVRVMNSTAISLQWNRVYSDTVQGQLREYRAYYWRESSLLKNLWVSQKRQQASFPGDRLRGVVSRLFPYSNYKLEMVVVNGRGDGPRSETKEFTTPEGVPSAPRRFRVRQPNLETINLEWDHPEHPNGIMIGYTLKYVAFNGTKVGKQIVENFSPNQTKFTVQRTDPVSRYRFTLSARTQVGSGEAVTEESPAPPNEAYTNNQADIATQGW

[2] = biological target: T2, human PTPRD ECD-His6 (ACROBiosystems) (human, UniProt P23468 21-1265); assay: BLI
T2 chain: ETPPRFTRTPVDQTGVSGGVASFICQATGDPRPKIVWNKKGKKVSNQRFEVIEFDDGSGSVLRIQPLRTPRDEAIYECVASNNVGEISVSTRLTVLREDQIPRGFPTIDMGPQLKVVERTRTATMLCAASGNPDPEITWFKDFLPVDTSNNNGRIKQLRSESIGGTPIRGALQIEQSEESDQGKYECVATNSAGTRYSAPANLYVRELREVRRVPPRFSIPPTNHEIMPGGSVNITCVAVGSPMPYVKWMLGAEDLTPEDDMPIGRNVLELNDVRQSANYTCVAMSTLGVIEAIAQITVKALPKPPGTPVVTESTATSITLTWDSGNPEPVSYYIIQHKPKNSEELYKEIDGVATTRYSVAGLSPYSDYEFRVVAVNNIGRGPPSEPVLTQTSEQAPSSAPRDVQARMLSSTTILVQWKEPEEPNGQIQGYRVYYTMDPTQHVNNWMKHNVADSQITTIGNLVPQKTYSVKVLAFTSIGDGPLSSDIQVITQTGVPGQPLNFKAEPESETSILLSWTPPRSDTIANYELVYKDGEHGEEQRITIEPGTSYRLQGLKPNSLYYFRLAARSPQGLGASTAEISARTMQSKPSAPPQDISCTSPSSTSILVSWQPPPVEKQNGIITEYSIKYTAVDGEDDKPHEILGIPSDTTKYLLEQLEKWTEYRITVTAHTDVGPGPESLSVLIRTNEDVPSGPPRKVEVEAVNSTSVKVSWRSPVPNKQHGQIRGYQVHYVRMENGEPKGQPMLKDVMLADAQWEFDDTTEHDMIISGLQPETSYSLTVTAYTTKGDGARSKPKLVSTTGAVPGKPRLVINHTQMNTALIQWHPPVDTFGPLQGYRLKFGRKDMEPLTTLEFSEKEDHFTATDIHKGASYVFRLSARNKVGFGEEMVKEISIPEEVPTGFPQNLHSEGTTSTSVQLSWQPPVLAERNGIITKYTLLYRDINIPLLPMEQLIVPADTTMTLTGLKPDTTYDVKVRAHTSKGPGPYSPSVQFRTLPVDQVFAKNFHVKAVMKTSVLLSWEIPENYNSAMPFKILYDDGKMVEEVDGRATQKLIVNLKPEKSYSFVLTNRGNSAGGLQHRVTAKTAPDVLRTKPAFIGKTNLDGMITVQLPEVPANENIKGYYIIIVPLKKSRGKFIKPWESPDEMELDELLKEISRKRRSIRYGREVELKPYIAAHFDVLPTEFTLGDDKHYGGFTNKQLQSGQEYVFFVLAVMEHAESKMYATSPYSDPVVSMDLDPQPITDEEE

[3] = biological target: T3, L1CAM ECD-His6 (777-NC-100, R&D Systems) (UniProt P32004 20-1120); assay: BLI
T3 chain: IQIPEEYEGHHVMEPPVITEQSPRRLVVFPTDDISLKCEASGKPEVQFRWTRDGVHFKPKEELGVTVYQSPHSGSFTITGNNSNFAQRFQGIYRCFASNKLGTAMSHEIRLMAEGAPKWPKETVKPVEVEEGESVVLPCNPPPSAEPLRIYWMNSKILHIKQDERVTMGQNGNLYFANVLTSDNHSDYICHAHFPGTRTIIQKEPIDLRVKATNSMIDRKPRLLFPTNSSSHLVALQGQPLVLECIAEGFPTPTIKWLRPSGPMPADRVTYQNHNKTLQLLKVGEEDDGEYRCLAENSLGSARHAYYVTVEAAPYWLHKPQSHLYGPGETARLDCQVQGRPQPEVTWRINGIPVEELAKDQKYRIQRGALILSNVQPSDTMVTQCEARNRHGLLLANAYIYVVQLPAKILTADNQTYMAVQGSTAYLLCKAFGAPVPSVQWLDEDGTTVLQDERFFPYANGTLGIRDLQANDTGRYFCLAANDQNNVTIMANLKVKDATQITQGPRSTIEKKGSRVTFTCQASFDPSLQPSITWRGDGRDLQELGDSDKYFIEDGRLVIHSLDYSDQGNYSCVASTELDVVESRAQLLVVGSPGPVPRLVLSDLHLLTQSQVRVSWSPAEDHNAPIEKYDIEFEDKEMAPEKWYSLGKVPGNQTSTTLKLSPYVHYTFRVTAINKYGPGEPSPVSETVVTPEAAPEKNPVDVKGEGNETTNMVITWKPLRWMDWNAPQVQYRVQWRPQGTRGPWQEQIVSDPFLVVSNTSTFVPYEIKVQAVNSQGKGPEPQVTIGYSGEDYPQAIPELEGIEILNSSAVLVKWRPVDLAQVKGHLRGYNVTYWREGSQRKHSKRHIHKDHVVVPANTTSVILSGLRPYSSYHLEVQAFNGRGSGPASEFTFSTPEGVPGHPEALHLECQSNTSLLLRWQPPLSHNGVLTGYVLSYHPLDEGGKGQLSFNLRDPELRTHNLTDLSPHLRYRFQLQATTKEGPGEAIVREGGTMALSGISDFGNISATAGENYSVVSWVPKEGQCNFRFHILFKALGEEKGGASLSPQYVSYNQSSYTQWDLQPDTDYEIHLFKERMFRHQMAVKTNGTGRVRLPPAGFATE

[4] = biological target: human Neurofascin ECD-His6 (human, UniProt O94856 25-1217, Mammalian-expressed glycoprotein is likely. C-terminal His6 tag omitted. The limits are not printed. The paper names catalogue 8208-NF-050 as Neurofascin 155, so the chain runs from after the signal p); assay: quartz crystal microbalance; SLITRK1 ECD-Fc (about 200 fmol) immobilised on the 27 MHz gold resonator through anti-human IgG Fc-HRP; ECD-His6 proteins added in solution; 50 mM Tris-HCl pH 7.6, 15 mM NaCl, 140 mM KCl, 0.5 mM MgCl2, 2 mM CaCl2; 25 ± 1 °C; kon and koff from 1/τ against concentration, KD = koff/kon; each sheet row is one experiment; conditions: both partners purified
human PTPRD ECD-His6 = biological target: T4, human PTPRD ECD-His6 (human, UniProt P23468 21-1265); assay: as above; conditions: both partners purified
T4 construct: human PTPRD (receptor-type protein tyrosine phosphatase delta) extracellular domain; No catalogue number printed; also called PTPRδ; source: bought: ACROBiosystems
T4 sequence (looked up): T2 chain

koff [1]: 0.00256 s⁻¹ | koff [2]: 0.00351 s⁻¹ | koff [3]: 0.00088 s⁻¹
B1: SLITRK1 ECD-immunoglobulin Fc domain-fusion protein (SLITRK1-WT-Fc) (Fc fusion)
chain: NVTGDVCKEKICSCNEIEGDLHVDCEKKGFTSLQRFTAPTSQFYHLFLHGNSLTRLFPNEFANFYNAVSLHMENNGLHEIVPGAFLGLQLVKRLHINNNKIKSFRKQTFLGLDDLEYLQADFNLLRDIDPGAFQDLNKLEVLILNDNLISTLPANVFQYVPITHLDLRGNRLKTLPYEEVLEQIPGIAEILLEDNPWDCTCDLLSLKEWLENIPKNALIGRVVCEAPTRLQGKDLNETTEQDLCPLKNRVDSSLPAPPAQEETFAPGPLPTPFKTNGQEDHATPGSAPNGGTKIPGNWQIKIRPTAAIATGSSRNKPLANSLPCPGGCSCDHIPGSGLKMNCNNRNVSSLADLKPKLSNVQELFLRDNKIHSIRKSHFVDYKNLILLDLGNNNIATVENNTFKNLLDLRWLYMDSNYLDTLSREKFAGLQNLEYLNVEYNAIQLILPGTFNAMPKLRILILNNNLLRSLPVDVFAGVSLSKLSLHNNYFMYLPVAGVLDQLTSIIQIDLHGNPWECSCTIVPFKQWAERLGSEVLMSDLKCETPVNFFRKDFMLLSNDEICPQLYARISPTLTSHSKNSTGLAETGTHSNSYLDTSRVS

Kd [4]: 13.3 nM and 16.3 nM and 13.1 nM | koff [4]: 0.00529 s⁻¹ and 0.00613 s⁻¹ and 0.00588 s⁻¹ | kon [4]: 398000 M⁻¹ s⁻¹ and 376000 M⁻¹ s⁻¹ and 451000 M⁻¹ s⁻¹
B2: SLITRK1-A444S-Fc (Fc fusion, human, UniProt Q96PX8 18-616, looked up)
chain: B1 chain with A427S
notes: signal peptide in the construct; human SLITRK1 extracellular domain, amino acid number 1-616 in NP_443142, with the patient-derived mutation A444S; A444S was found in patients with BPD, so it occurs in nature; also called SLITRK1 ECD-Fc A444S

Kd (human PTPRD ECD-His6): 110 nM and 202 nM and 144 nM | koff (human PTPRD ECD-His6): 0.00348 s⁻¹ and 0.00358 s⁻¹ and 0.00347 s⁻¹ | kon (human PTPRD ECD-His6): 31600 M⁻¹ s⁻¹ and 17700 M⁻¹ s⁻¹ and 24100 M⁻¹ s⁻¹ | Kd [4]: 18.7 nM and 15.5 nM and 15.7 nM | koff [4]: 0.00278 s⁻¹ and 0.00247 s⁻¹ and 0.00243 s⁻¹ | kon [4]: 154000 M⁻¹ s⁻¹ and 149000 M⁻¹ s⁻¹ and 159000 M⁻¹ s⁻¹
B3: SLITRK1 ECD-immunoglobulin Fc domain-fusion protein (SLITRK1-WT-Fc) (Fc fusion, human, UniProt Q96PX8 18-616, looked up)
chain: B1 chain
notes: signal peptide in the construct; human SLITRK1 extracellular domain, amino acid number 1-616 in NP_443142; Held on the resonator through anti-human IgG Fc; also called SLITRK1 ECD-Fc

Kd [4]: 44.8 nM and 64.2 nM and 68.8 nM | koff [4]: 0.00635 s⁻¹ and 0.00732 s⁻¹ and 0.00627 s⁻¹ | kon [4]: 142000 M⁻¹ s⁻¹ and 91200 M⁻¹ s⁻¹ and 114000 M⁻¹ s⁻¹
B4: SLITRK1-S330A-Fc (Fc fusion, human, UniProt Q96PX8 18-616, looked up)
chain: B1 chain with S313A
notes: signal peptide in the construct; human SLITRK1 extracellular domain, amino acid number 1-616 in NP_443142, with the patient-derived mutation S330A; S330A was found in patients (SCZ/BPD) and controls, so it occurs in nature; also called SLITRK1 ECD-Fc S330A

— publication PMC9463131, “SLITRK1-mediated noradrenergic projection suppression in the neonatal prefrontal cortex” (Communications Biology, 2022)
